The record followed here is patent US20180201654A1 (UNIVERSITY OF SOUTHERN CALIFORNIA, published 2018).

The target in test [1] is T1, HAUSP (Herpes virus-associated ubiquitin-specific protease), full length (human, UniProt Q93009 1-1102).
T1 construct: also called USP7; Flag-HAUSP
Kind of test: co-immunoprecipitation from transfected 293T cells, IP: V5, IB: Flag.

Test [2] concerns the target T1, HAUSP (Herpes virus-associated …). Kind of test: GST pulldown from transfected cells, immunoblot with anti-HAUSP antibody. On the technique in general: In western blotting, separated proteins are transferred to a membrane and probed.
For test [3] the target is unchanged. The test is described as follows: co-immunoprecipitation from transfected 293T cells, IP: V5, IB: Flag. The source holds these as a separate data set.
Test [4] has the same target. The test is described as follows: GST pulldown from transfected 293T cells, IB: Flag.
Test [5] has as its target T2, HAUSP TRAF domain (HAUSP^62-205) (human, UniProt Q93009 62-205).
T2 construct: also called TRAF-like domain of HAUSP
Kind of test: ITC, titration against the HAUSP TRAF domain, 20 C.

T2 sequence (Q93009 62-205): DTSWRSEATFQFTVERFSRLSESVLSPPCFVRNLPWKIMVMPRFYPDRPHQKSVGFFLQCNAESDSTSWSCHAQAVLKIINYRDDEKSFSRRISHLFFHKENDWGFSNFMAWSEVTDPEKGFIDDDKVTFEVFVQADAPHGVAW
T1 sequence (Q93009 whole entry): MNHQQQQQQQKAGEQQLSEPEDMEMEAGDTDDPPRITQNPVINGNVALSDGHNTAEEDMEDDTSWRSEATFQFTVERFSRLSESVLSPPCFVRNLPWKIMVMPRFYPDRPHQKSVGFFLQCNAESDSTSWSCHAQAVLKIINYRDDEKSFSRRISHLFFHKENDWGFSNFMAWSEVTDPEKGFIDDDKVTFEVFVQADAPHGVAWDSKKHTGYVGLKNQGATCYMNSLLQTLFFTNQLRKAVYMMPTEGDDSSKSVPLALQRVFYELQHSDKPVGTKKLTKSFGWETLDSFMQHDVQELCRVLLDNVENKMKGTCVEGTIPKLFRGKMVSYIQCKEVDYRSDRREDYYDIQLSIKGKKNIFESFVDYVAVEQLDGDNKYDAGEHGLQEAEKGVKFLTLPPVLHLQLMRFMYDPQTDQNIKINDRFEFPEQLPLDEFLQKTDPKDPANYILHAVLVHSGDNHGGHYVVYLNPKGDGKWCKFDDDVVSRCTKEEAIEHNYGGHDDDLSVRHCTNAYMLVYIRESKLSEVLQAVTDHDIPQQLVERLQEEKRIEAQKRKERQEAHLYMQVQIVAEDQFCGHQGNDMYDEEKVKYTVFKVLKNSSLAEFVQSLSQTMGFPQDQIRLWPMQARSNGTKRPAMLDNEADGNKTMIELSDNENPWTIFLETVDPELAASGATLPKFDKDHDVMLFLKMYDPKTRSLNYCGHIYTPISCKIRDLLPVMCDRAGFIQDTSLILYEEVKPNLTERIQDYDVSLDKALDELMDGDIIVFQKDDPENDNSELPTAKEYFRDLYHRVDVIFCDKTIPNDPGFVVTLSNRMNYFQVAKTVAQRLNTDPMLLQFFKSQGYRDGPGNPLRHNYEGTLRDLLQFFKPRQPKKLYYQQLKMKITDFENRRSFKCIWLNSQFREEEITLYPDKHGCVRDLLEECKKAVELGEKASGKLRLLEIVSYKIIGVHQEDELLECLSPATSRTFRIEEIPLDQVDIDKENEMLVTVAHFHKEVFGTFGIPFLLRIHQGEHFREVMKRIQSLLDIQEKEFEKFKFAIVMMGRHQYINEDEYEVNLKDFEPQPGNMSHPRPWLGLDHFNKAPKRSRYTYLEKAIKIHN

B1: V5/vIRF4 1-605 (other)
single chain: MPKAGGSEWATLWIIDALENNKFPYFSWFDRNNLLFAAPAPLPAGSDIPPGWYSVYHAFDEECDRVYGPSPVVGQTVYGRFGRLLRGTRRAVVRNDLRYSDTFGGSYVVWQLVRTPFKNCTYCYGAAYGPEKLQRFIQCLLSPPMQTTATRRSDTREQSYEEAGAAAPAPPKAPSGLRGRPRKSNRYYNVGDITTEQKAACSVWIPVNEGASTSGMGSSGTRQVTQASSFTWRVPGDPPAPSTLTGPSDPHSSGAGLPGTAPPKPQHETRLAGTVSGVSGVAQTPGDTGQLAPPMRDGSRLPSTSPWIPACFPWGDLPVTGWWPQGASGLPEKVHPPTTGQFDPLSPRWTYTGIPSSQLNPAAPSWIPPHAQAGTFVGEFSQGAPLAPQGLLPQSGQCASAWLPRRETGAEGACGASTEGRAPQGAASERVYPFEPQPPSAPAPGYAKPSCYNWSPLAEPPATRPIRAPVWHPPVGHAVVPEVRTPLWIPWSSGGAPNQGLSHTQGGASATPSAGAPPTPEVAERQEPSSSGIPYVCQGDNMATGYRRVTTSSGALEVEIIDLTGDSDTPSTTVASTPLPVSGPRVFQPTVLYSAPEPAVNPEVS
Turning to B1, the binding result in test [1] is “binds”.

B2: GST-vIRF4^220-236 (other)
chain: GTRQVTQASSFTWRVPG
notes: not shown: GST tag of the pEBG-GST vector
Take B2: the binding result in test [2] is “binds”.

B3: vIRF4 (Kaposi's-sarcoma-associated-herpesvirus vIRF4), full length wild type (other)
chain: MPKAGGSEWATLWIIDALENNKFPYFSWFDRNNLLFAAPAPLPAGSDIPPGWYSVYHAFDEECDRVYGPSPVVGQTVYGRFGRLLRGTRRAVVRNDLRYSDTFGGSYVVWQLVRTPFKNCTYCYGAAYGPEKLQRFIQCLLSPPMQTTATRRSDTREQSYEEAGAAAPAPPKAPSGLRGRPRKSNRYYNVGDITTEQKAACSVWIPVNEGASTSGMGSSGTRQVTQASSFTWRVPGDPPAPSTLTGPSDPHSSGAGLPGTAPPKPQHETRLAGTVSGVSGVAQTPGDTGQLAPPMRDGSRLPSTSPWIPACFPWGDLPVTGWWPQGASGLPEKVHPPTTGQFDPLSPRWTYTGIPSSQLNPAAPSWIPPHAQAGTFVGEFSQGAPLAPQGLLPQSGQCASAWLPRRETGAEGACGASTEGRAPQGAASERVYPFEPQPPSAPAPGYAKPSCYNWSPLAEPPATRPIRAPVWHPPVGHAVVPEVRTPLWIPWSSGGAPNQGLSHTQGGASATPSAGAPPTPEVAERQEPSSSGIPYVCQGDNMATGYRRVTTSSGALEVEIIDLTGDSDTPSTTVASTPLPVSGPRVFQPTVLYSAPEPAVNPEVSHLPTELERRECVCPGSGERPRVPLVSTYAGDRYAVGGYGPEQSLVPPPLGLPLTLSNLQGEDICTWEEGLGNILSELQEEPSSSTRQATDRRRPRSRSPHGRRTPVSHSGPEKPPSKMFFDPPDSQRVSFVVEIFVYGNLRGTLRREGDAGEAMLCSWPVGDTLGHLCQSFVPELLRIPRLTVPSPEQMEILNRVFEGLGHGFPIFCSMSGIYSRNATQVEGWWFGNPNSRYERILRSFSPRVPQQLFNTARYLATTAAIPQTPLSVNPVTCGTVFFGASPASTENFQNVPLTVKIFIGSIWDSLH
For B3, the binding result in test [3] is reported as “binds”.

B4: GST-vIRF4 153-305 (other)
single chain: SDTREQSYEEAGAAAPAPPKAPSGLRGRPRKSNRYYNVGDITTEQKAACSVWIPVNEGASTSGMGSSGTRQVTQASSFTWRVPGDPPAPSTLTGPSDPHSSGAGLPGTAPPKPQHETRLAGTVSGVSGVAQTPGDTGQLAPPMRDGSRLPSTS
For B4, the binding result in test [4] is “binds”.

B5: vIRF4^153-216 (other)
chain: SDTREQSYEEAGAAAPAPPKAPSGLRGRPRKSNRYYNVGDITTEQKAACSVWIPVNEGASTSGM
The Kd is the equilibrium constant for the complex coming apart. A higher Kd goes with a looser complex. In test [5], B5 yielded a Ka of 1.84e+06 M⁻¹, a Kd of 540 nM, a TΔS of -7.35 kcal/mol and a n of 0.82. In test [5], this molecule showed a ΔG of -8.41 kcal/mol and a ΔH of -15.8 kcal/mol.

B6: V5/vIRF4 1-454 (other)
single chain: MPKAGGSEWATLWIIDALENNKFPYFSWFDRNNLLFAAPAPLPAGSDIPPGWYSVYHAFDEECDRVYGPSPVVGQTVYGRFGRLLRGTRRAVVRNDLRYSDTFGGSYVVWQLVRTPFKNCTYCYGAAYGPEKLQRFIQCLLSPPMQTTATRRSDTREQSYEEAGAAAPAPPKAPSGLRGRPRKSNRYYNVGDITTEQKAACSVWIPVNEGASTSGMGSSGTRQVTQASSFTWRVPGDPPAPSTLTGPSDPHSSGAGLPGTAPPKPQHETRLAGTVSGVSGVAQTPGDTGQLAPPMRDGSRLPSTSPWIPACFPWGDLPVTGWWPQGASGLPEKVHPPTTGQFDPLSPRWTYTGIPSSQLNPAAPSWIPPHAQAGTFVGEFSQGAPLAPQGLLPQSGQCASAWLPRRETGAEGACGASTEGRAPQGAASERVYPFEPQPPSAPAPGYAKPSCYNW
As to B6, the binding result in test [1] is given as “binds”.

B7: GST-vIRF4 1-153 (other)
single chain: MPKAGGSEWATLWIIDALENNKFPYFSWFDRNNLLFAAPAPLPAGSDIPPGWYSVYHAFDEECDRVYGPSPVVGQTVYGRFGRLLRGTRRAVVRNDLRYSDTFGGSYVVWQLVRTPFKNCTYCYGAAYGPEKLQRFIQCLLSPPMQTTATRRS
On to B7, for which, in test [4], the binding result was “no binding”.

B8: V5/vIRF4 1-305 (other)
single chain: MPKAGGSEWATLWIIDALENNKFPYFSWFDRNNLLFAAPAPLPAGSDIPPGWYSVYHAFDEECDRVYGPSPVVGQTVYGRFGRLLRGTRRAVVRNDLRYSDTFGGSYVVWQLVRTPFKNCTYCYGAAYGPEKLQRFIQCLLSPPMQTTATRRSDTREQSYEEAGAAAPAPPKAPSGLRGRPRKSNRYYNVGDITTEQKAACSVWIPVNEGASTSGMGSSGTRQVTQASSFTWRVPGDPPAPSTLTGPSDPHSSGAGLPGTAPPKPQHETRLAGTVSGVSGVAQTPGDTGQLAPPMRDGSRLPSTS
Turning to B8, in test [1], the binding result is “binds”.

B9: GST-vIRF4^202-256 (other)
chain: SVWIPVNEGASTSGMGSSGTRQVTQASSFTWRVPGDPPAPSTLTGPSDPHSSGAG
notes: as for B2
On to B9, for which the binding result in test [2] was “binds”.

B10: V5/vIRF4 1-758 (other)
single chain: MPKAGGSEWATLWIIDALENNKFPYFSWFDRNNLLFAAPAPLPAGSDIPPGWYSVYHAFDEECDRVYGPSPVVGQTVYGRFGRLLRGTRRAVVRNDLRYSDTFGGSYVVWQLVRTPFKNCTYCYGAAYGPEKLQRFIQCLLSPPMQTTATRRSDTREQSYEEAGAAAPAPPKAPSGLRGRPRKSNRYYNVGDITTEQKAACSVWIPVNEGASTSGMGSSGTRQVTQASSFTWRVPGDPPAPSTLTGPSDPHSSGAGLPGTAPPKPQHETRLAGTVSGVSGVAQTPGDTGQLAPPMRDGSRLPSTSPWIPACFPWGDLPVTGWWPQGASGLPEKVHPPTTGQFDPLSPRWTYTGIPSSQLNPAAPSWIPPHAQAGTFVGEFSQGAPLAPQGLLPQSGQCASAWLPRRETGAEGACGASTEGRAPQGAASERVYPFEPQPPSAPAPGYAKPSCYNWSPLAEPPATRPIRAPVWHPPVGHAVVPEVRTPLWIPWSSGGAPNQGLSHTQGGASATPSAGAPPTPEVAERQEPSSSGIPYVCQGDNMATGYRRVTTSSGALEVEIIDLTGDSDTPSTTVASTPLPVSGPRVFQPTVLYSAPEPAVNPEVSHLPTELERRECVCPGSGERPRVPLVSTYAGDRYAVGGYGPEQSLVPPPLGLPLTLSNLQGEDICTWEEGLGNILSELQEEPSSSTRQATDRRRPRSRSPHGRRTPVSHSGPEKPPSKMFFDPPDSQRVSFVVEIFVYGNLRGTLRREGDAGEA
B10: the binding result in test [1] was “binds”.
